Data: publication PMC7792996, “Crystal structure of death-associated protein kinase 1 in complex with the dietary compound resveratrol” (IUCrJ, 2021)

Substrate: Nc1ncnc2c1ncn2[C@@H]1O[C@H](COP(=O)(O)OP(=O)(O)OP(=O)(O)O)[C@@H](O)[C@H]1O
Assay: intrinsic ATPase kinetics by malachite green assay (Km)
Assay type: biochemical, Homo sapiens
Details: Mg2+ ([…] MgCl2 in the assay) ATP-binding site

B1: Death-associated protein kinase 1 (DAPK1) (Homo sapiens) (protein)
chain: MTVFRQENVDDYYDTGEELGSGQFAVVKKCREKSTGLQYAAKFIKKRRTKSSRRGVSREDIEREVSILKEIQHPNVITLHEVYENKTDVILILELVAGGELFDFLAEKESLTEEEATEFLKQILNGVYYLHSLQIAHFDLKPENIMLLDRNVPKPRIKIIDFGLAHKIDFGNEFKNIFGTPEFVAPEIVNYEPLGLEADMWSIGVITYILLSGASPFLGDTKQETLANVSAVNYEFEDEYFSNTSALAKDFIRRLLVKDPKKRMTIQDSLQHPWIKPKDTQQALS
notes: catalytic domain, residues 1–285
Km: 21 ± 2.4 µM
kcat: 0.012 ± 8.5e-05 s⁻¹
kcat/Km: 733 ± 71.7 M⁻¹ s⁻¹
